{"source": "paper PMC3852656", "key": {"[1]": {"molecular_target": "superfolder Cherry (sfCherry)", "experiment": "crystal structure; sfCherry alone, 2.0 Å, space group P21, eight copies in the asymmetric unit; 0.1 M SPG buffer pH 5.0, 25% PEG 1500"}, "[2]": {"molecular_target": "superfolder Cherry (sfCherry)", "experiment": "native gel or EMSA; native polyacrylamide gel at ∼10 mg/ml protein concentration"}}}
{"substance": "superfolder Cherry (sfCherry)", "values": [{"measurement": "stoichiometry N", "setting": "[1]", "result": 2}, {"measurement": "percent dimer", "setting": "[2]", "result": 50, "unit": "%"}, {"measurement": "stoichiometry N", "setting": "[2]", "result": 2}]}
